Where a chain is given by its changes, count along the chain named. Names may count otherwise.
How the values were obtained:
FcγRIIa H [1] = biological target: T1, FcγRIIa H (human, UniProt P12318 34-217); assay: SPR (Biacore); He/Con_2aH divided by He/Con_2b (FcγRIIa H versus FcγRIIb)
T1 construct: extracellular domain; also called FcgRIIa H; 2aH; not shown: His tag at the C terminus
T1 sequence (looked up): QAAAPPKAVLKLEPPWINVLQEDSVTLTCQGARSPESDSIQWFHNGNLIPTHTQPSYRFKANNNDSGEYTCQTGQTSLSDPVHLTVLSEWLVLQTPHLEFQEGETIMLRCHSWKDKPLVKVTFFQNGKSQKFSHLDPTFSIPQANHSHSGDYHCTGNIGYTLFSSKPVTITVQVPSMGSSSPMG
Description: (§1) The heterodimerized antibodies He Abs in which one of the H chains was introduced with an alteration were assayed for their binding activities to each activating FcγR and inhibitory FcγR according to the method described in Example 4. […] The activating FcγRs in FIGS. 26, 27, 28, and 29 are FcγRIa, FcγRIIa (R), FcγRIIa (H), and FcγRIIIa, respectively.
(§2) Analysis of interaction between objective antibody and the FcγR was carried out using Biacore T100 (GE Healthcare). HBS-EP+ (GE Healthcare) was used as the running buffer, and the measurement temperature was set to 25° C. Chips produced by immobilizing the antigen peptide by the amine coupling method to a Series S Sencor Chip CM5 (GE Healthcare), or alternatively, chips produced by allowing preliminarily biotinylated antigen peptides to interact with and immobilize onto a Series S Sensor Chip SA (certified) (GE Healthcare) were used. Antibodies of interest were captured onto an antigen peptide-immobilized chip, and allowed to interact to each FcγR diluted with running buffer. To regenerate and repeatedly use the chip, the antibodies captured on the chip were washed off by reacting 10 mM glycine-HCl, pH 1.5.

FcγRIIa H [2] = biological target: T1, FcγRIIa H; assay: SPR (Biacore), FcγR passed over captured antibody; binding amount as % of control GpH7-A5/GpH7-B3/GpL16-k0 (=100)
Description: as §1, §2

FcγRIIb = biological target: T2, FcγRIIb (human, UniProt P31994 43-217); assay: as above
T2 construct: extracellular domain; also called FcgRIIb; 2b; not shown: His tag at the C terminus
T2 sequence (looked up): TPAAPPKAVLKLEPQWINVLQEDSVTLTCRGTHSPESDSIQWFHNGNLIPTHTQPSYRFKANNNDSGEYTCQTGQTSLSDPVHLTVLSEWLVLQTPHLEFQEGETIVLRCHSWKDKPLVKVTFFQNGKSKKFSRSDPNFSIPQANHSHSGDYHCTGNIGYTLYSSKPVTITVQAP
Description: as §1, §2

[3] = biological target: T3, FcγRIIa R (extracellular domain, His tag at the C terminus) (human, UniProt P12318 34-217); assay: SPR (Biacore), relative binding, control GpH7-B3/GpL16-k0 = 100
T3 construct: extracellular domain; Soluble analyte in Biacore; also called FcgRIIa R type; 2aR
T3 sequence (looked up): T1 sequence (looked up) with H134R
Description: as §2

B1: GpH7-A5/GpH7-B3 variant N325_11K/GpL16-k0 (antibody, human IgG1, kappa)
heavy 1: not shown
heavy 2: not shown
light: DIVMTQSPLSLPVTPGEPASISCQASESLVHSNRNTYLHWYLQKPGQSPQLLIYKVSNRFSGVPDRFSGSGSGTDFTLKISRVEAEDVGVYYCSQNTHVPPTFGQGTKVEIERTVAAPSVFIFPPSDEQLKSGTASVVCLLNNFYPREAKVQWKVDNALQSGNSQESVTEQDSKDSTYSLSSTLTLSKADYEKHKVYACEVTHQGLSSPVTKSFNRGEC
notes: He Ab: mutation in the GpH7-B3 H chain only
He_2aH/2b (IIaH/IIb) (FcγRIIa H [1]): 1.55 ratio | He/Con_2aH (FcγRIIa H [2]): 16.1 relative, control = 100 | He/Con_2b (FcγRIIb): 10.4 relative, control = 100

B2: GpH7-B3 variant T335_15Y/GpL16-k0 (antibody, human IgG1, kappa)
heavy: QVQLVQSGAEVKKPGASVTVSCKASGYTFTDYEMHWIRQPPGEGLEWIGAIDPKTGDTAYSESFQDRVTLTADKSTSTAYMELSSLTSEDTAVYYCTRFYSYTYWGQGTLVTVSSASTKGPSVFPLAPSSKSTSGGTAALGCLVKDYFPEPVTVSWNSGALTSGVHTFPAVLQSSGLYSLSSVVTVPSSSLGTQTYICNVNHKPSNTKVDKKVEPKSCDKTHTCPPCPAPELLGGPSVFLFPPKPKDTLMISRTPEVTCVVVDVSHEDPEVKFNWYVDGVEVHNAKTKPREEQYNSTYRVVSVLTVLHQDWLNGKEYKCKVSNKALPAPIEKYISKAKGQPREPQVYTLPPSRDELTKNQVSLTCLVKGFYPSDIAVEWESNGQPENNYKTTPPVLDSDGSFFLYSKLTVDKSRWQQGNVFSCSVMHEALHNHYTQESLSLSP
light: B1 light
notes: homodimerized; also called Ho Ab
Ho/Con_2aR [3]: 107 % of control

B3: GpH7-A5/GpH7-B3 variant S324_02A/GpL16-k0 (antibody, human IgG1, kappa)
heavy 1: not shown
heavy 2: not shown
light: B1 light
notes: as for B1
He_2aH/2b (IIaH/IIb) (FcγRIIa H [1]): 1.31 ratio | He/Con_2aH (FcγRIIa H [2]): 102 relative, control = 100 | He/Con_2b (FcγRIIb): 78.3 relative, control = 100

B4: GpH7-A5/GpH7-B3 variant P329_06M/GpL16-k0 (antibody, human IgG1, kappa)
heavy 1: not shown
heavy 2: not shown
light: B1 light
notes: as for B1
He_2aH/2b (IIaH/IIb) (FcγRIIa H [1]): 1.5 ratio | He/Con_2aH (FcγRIIa H [2]): 43.7 relative, control = 100 | He/Con_2b (FcγRIIb): 29.1 relative, control = 100

B5: GpH7-A5/GpH7-B3 variant S324_12R/GpL16-k0 (antibody, human IgG1, kappa)
heavy 1: not shown
heavy 2: not shown
light: B1 light
notes: as for B1
He_2aH/2b (IIaH/IIb) (FcγRIIa H [1]): 1.53 ratio | He/Con_2aH (FcγRIIa H [2]): 96.5 relative, control = 100 | He/Con_2b (FcγRIIb): 63.1 relative, control = 100

B6: GpH7-A5/GpH7-B3 variant Y300_12R/GpL16-k0 (antibody, human IgG1, kappa)
heavy 1: not shown
heavy 2: not shown
light: B1 light
notes: as for B1
He_2aH/2b (IIaH/IIb) (FcγRIIa H [1]): 1.34 ratio | He/Con_2aH (FcγRIIa H [2]): 55.4 relative, control = 100 | He/Con_2b (FcγRIIb): 41.2 relative, control = 100

B7: GpH7-A5/GpH7-B3 variant P329_11K/GpL16-k0 (antibody, human IgG1, kappa)
heavy 1: not shown
heavy 2: not shown
light: B1 light
notes: He Ab: P329K (EU numbering) in the GpH7-B3 H chain only; also called GpH7-A5/GpH7-B13/GpL16-k0
He_2aH/2b (IIaH/IIb) (FcγRIIa H [1]): 2.74 ratio | He/Con_2aH (FcγRIIa H [2]): 46.2 relative, control = 100 | He/Con_2b (FcγRIIb): 16.9 relative, control = 100

B8: GpH7-A5/GpH7-B3 variant P329_08L/GpL16-k0 (antibody, human IgG1, kappa)
heavy 1: not shown
heavy 2: not shown
light: B1 light
notes: as for B1
He_2aH/2b (IIaH/IIb) (FcγRIIa H [1]): 1.56 ratio | He/Con_2aH (FcγRIIa H [2]): 45.4 relative, control = 100 | He/Con_2b (FcγRIIb): 29.1 relative, control = 100

B9: GpH7-A5/GpH7-B3 variant S324_19Q/GpL16-k0 (antibody, human IgG1, kappa)
heavy 1: not shown
heavy 2: not shown
light: B1 light
notes: as for B1
He_2aH/2b (IIaH/IIb) (FcγRIIa H [1]): 1.44 ratio | He/Con_2aH (FcγRIIa H [2]): 96 relative, control = 100 | He/Con_2b (FcγRIIb): 66.8 relative, control = 100

B10: GpH7-A5/GpH7-B3 variant P329_02A/GpL16-k0 (antibody, human IgG1, kappa)
heavy 1: not shown
heavy 2: not shown
light: B1 light
notes: as for B1
He_2aH/2b (IIaH/IIb) (FcγRIIa H [1]): 1.62 ratio | He/Con_2aH (FcγRIIa H [2]): 65.7 relative, control = 100 | He/Con_2b (FcγRIIb): 40.5 relative, control = 100

B11: GpH7-A5/GpH7-B3 variant S324_11K/GpL16-k0 (antibody, human IgG1, kappa)
heavy 1: not shown
heavy 2: not shown
light: B1 light
notes: as for B1
He_2aH/2b (IIaH/IIb) (FcγRIIa H [1]): 1.34 ratio | He/Con_2aH (FcγRIIa H [2]): 92.2 relative, control = 100 | He/Con_2b (FcγRIIb): 68.6 relative, control = 100

B12: GpH7-A5/GpH7-B3 variant P329_18N/GpL16-k0 (antibody, human IgG1, kappa)
heavy 1: not shown
heavy 2: not shown
light: B1 light
notes: as for B1
He_2aH/2b (IIaH/IIb) (FcγRIIa H [1]): 1.64 ratio | He/Con_2aH (FcγRIIa H [2]): 66.2 relative, control = 100 | He/Con_2b (FcγRIIb): 40.4 relative, control = 100

B13: GpH7-A5/GpH7-B3 variant S324_10E/GpL16-k0 (antibody, human IgG1, kappa)
heavy 1: not shown
heavy 2: not shown
light: B1 light
notes: as for B1
He_2aH/2b (IIaH/IIb) (FcγRIIa H [1]): 1.33 ratio | He/Con_2aH (FcγRIIa H [2]): 103 relative, control = 100 | He/Con_2b (FcγRIIb): 77.4 relative, control = 100

B14: GpH7-A5/GpH7-B3 variant P329_15Y/GpL16-k0 (antibody, human IgG1, kappa)
heavy 1: not shown
heavy 2: not shown
light: B1 light
notes: as for B1
He_2aH/2b (IIaH/IIb) (FcγRIIa H [1]): 1.5 ratio | He/Con_2aH (FcγRIIa H [2]): 68.7 relative, control = 100 | He/Con_2b (FcγRIIb): 45.7 relative, control = 100

B15: GpH7-A5/GpH7-B3 variant P329_19Q/GpL16-k0 (antibody, human IgG1, kappa)
heavy 1: not shown
heavy 2: not shown
light: B1 light
notes: as for B1
He_2aH/2b (IIaH/IIb) (FcγRIIa H [1]): 1.26 ratio | He/Con_2aH (FcγRIIa H [2]): 38.7 relative, control = 100 | He/Con_2b (FcγRIIb): 30.7 relative, control = 100

B16: GpH7-A5/GpH7-B3 variant N325_12R/GpL16-k0 (antibody, human IgG1, kappa)
heavy 1: not shown
heavy 2: not shown
light: B1 light
notes: as for B1
He_2aH/2b (IIaH/IIb) (FcγRIIa H [1]): 1.56 ratio | He/Con_2aH (FcγRIIa H [2]): 29.9 relative, control = 100 | He/Con_2b (FcγRIIb): 19.1 relative, control = 100

— patent US20150344570A1 (published 2015)
